{"source": "patent US20260356943", "about": "(published 2026)", "binders": {"B1": {"name": "BA6M11(WT)x1A10M12 4-1BB arm (antibody, V domains shown)", "VH": "EVQLLESGGGLVQPGGSLRLSCAASGFTFSSYDMSWVRQAPGKCLEWVSWISYSGGSIYYADSVKGRFTISRDNSKNTLYLQMNSLRAEDTAVYYCARDAQRNSMREFDYWGQGTLVTVSS", "VL": "QSVLTQPPSASGTPGQRVTISCSGSSSNIGNNYVTWYQQLPGTAPKLLIYADSHRPSGVPDRFSGSKSGTSASLAISGLRSEDEADYYCATWDYSLSGYVFGCGTKLTVL"}, "B2": {"name": "BA6M11(NA)x1A10M12 4-1BB arm (antibody, V domains shown)", "VH": "B1 VH", "VL": "B1 VL"}, "B3": {"name": "BA6M11 IgG (antibody, V domains shown)", "VH": "EVQLLESGGGLVQPGGSLRLSCAASGFTFSNYDMSWVRQAPGKGLEWVSAIYHSGSSKYYADSVKGRFTISRDNSKNTLYLQMNSLRAEDTAVYYCARGGSGAWDTGFDYWGQGTLVTVSS", "VL": "QSVLTQPPSASGTPGQRVTISCSGSSSNIGSNDVSWYQQLPGTAPKLLIYYENNRPSGVPDRFSGSKSGTSASLAISGLRSEDEADYYCGAWDDSLSGYVFGGGTKLTVL"}, "B4": {"name": "BA6xB5 B7-H3 arm (antibody, V domains shown)", "VH": "EVQLLESGGGLVQPGGSLRLSCAASGFTFSDYAMSWVRQAPGKCLEWVSSISSGSGSIYYADSVKGRFTISRDNSKNTLYLQMNSLRAEDTAVYYCAKNLIPLDYWGQGTLVTVSS", "VL": "B3 VL with D33A, E52N, N53S, N54H, A91S, D94A, S97N, G98A, G103C"}, "B5": {"name": "BA6x1A10M12 ROR1 arm (antibody, V domains shown)", "VH": "B3 VH with S101N", "VL": "B3 VL with E52D"}, "B6": {"name": "BA6 IgG (WT) (antibody, V domains shown)", "VH": "B3 VH with S101N", "VL": "B3 VL with E52D"}, "B7": {"name": "BA6M11xB5 ROR1 arm (antibody, V domains shown)", "VH": "B3 VH", "VL": "B3 VL"}, "B8": {"name": "BA6M11(NA)x1A10M12 ROR1 arm (antibody, V domains shown)", "VH": "B3 VH", "VL": "B3 VL"}, "B9": {"name": "BA6M11xB5 B7-H3 arm (antibody, V domains shown)", "VH": "B4 VH", "VL": "B3 VL with D33A, E52N, N53S, N54H, A91S, D94A, S97N, G98A, G103C"}, "B10": {"name": "BA6xB5 ROR1 arm (antibody, V domains shown)", "VH": "B3 VH with S101N", "VL": "B3 VL with E52D"}, "B11": {"name": "BA6M11(WT)x1A10M12 ROR1 arm (antibody, V domains shown)", "VH": "B3 VH", "VL": "B3 VL"}}, "key": {"human 4-1BB": {"target": "human 4-1BB (human, UniProt Q07011)", "sequence (Q07011 24-186)": "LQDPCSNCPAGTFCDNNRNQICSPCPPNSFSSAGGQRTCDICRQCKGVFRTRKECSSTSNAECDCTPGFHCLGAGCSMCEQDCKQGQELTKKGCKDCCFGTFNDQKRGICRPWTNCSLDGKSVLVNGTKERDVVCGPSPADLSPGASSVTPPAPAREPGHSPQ", "assay": "SPR, 25C"}, "human ROR1 [1]": {"target": "T1, human ROR1 (human, UniProt Q01973)", "T1 sequence (Q01973 30-403)": "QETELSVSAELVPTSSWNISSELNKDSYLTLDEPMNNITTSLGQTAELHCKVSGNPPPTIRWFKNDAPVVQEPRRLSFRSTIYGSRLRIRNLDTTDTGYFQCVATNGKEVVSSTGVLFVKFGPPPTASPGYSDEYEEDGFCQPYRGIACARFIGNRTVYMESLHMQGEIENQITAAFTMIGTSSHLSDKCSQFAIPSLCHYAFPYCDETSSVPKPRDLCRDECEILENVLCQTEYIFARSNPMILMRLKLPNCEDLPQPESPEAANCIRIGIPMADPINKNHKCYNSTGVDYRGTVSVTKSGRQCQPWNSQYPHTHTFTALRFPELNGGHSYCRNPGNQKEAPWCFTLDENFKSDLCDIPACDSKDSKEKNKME", "assay": "ELISA, stored 4C"}, "human ROR1 [2]": {"target": "T1, human ROR1", "assay": "ELISA, stored 37C 2 weeks"}, "human B7-H3 [3]": {"target": "T2, human B7-H3 (human, UniProt Q5ZPR3)", "T2 chain": "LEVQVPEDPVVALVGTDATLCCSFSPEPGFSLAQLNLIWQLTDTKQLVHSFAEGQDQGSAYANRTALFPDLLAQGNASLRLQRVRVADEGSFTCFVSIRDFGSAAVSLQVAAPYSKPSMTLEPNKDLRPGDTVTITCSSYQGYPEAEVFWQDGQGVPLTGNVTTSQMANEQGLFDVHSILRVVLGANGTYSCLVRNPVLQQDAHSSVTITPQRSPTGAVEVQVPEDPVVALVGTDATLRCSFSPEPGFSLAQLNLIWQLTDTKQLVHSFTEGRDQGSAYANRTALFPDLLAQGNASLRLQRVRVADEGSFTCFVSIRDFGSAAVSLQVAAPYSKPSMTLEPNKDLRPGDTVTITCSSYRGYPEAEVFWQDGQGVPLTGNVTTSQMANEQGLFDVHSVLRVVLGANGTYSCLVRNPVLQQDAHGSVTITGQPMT", "assay": "ELISA, stored 4C"}, "human B7-H3 [4]": {"target": "T2, human B7-H3", "assay": "ELISA, stored 40C 2 weeks"}, "human ROR1 [5]": {"target": "T1, human ROR1", "assay": "ELISA, human serum 0 day"}, "human ROR1 [6]": {"target": "T1, human ROR1", "assay": "ELISA, human serum 7 days"}, "human ROR1 [7]": {"target": "T1, human ROR1", "assay": "ELISA, human serum 2 days"}, "human ROR1 [8]": {"target": "T1, human ROR1", "assay": "ELISA, monkey serum 0 day"}, "human ROR1 [9]": {"target": "T1, human ROR1", "assay": "ELISA, monkey serum 2 days"}, "human ROR1 [10]": {"target": "T1, human ROR1", "assay": "ELISA, human serum 14 days"}, "human ROR1 [11]": {"target": "T1, human ROR1", "assay": "ELISA, monkey serum 7 days"}, "human ROR1 [12]": {"target": "T1, human ROR1", "assay": "ELISA, monkey serum 14 days"}, "human ROR1 [13]": {"target": "T1, human ROR1", "assay": "ELISA, dual-antigen capture ROR1/4-1BB"}, "human ROR1 [14]": {"target": "T1, human ROR1", "assay": "ELISA, stored 4C", "remark": "listed apart in the source"}, "human ROR1 [15]": {"target": "T1, human ROR1", "assay": "ELISA, stored 40C 2 weeks"}, "human ROR1 [16]": {"target": "T1, human ROR1", "assay": "ELISA, human serum 3 days"}, "human ROR1 [17]": {"target": "T1, human ROR1", "assay": "ELISA, monkey serum 3 days"}, "human ROR1 [18]": {"target": "T1, human ROR1", "assay": "SPR, 25C, bivalent analyte"}}, "note": "Positions count from the first letter of the chain named.", "data": [{"binder": "B1", "values": [{"measurement": "Kd", "setting": "human 4-1BB", "result": 4.53, "unit": "nM"}]}, {"binder": "B2", "values": [{"measurement": "Kd", "setting": "human 4-1BB", "result": 4.5, "unit": "nM"}]}, {"binder": "B3", "values": [{"measurement": "EC50", "setting": "human ROR1 [1]", "result": 0.166, "unit": "nM"}, {"measurement": "EC50", "setting": "human ROR1 [2]", "result": 0.129, "unit": "nM"}]}, {"binder": "B4", "values": [{"measurement": "EC50", "setting": "human B7-H3 [3]", "result": 0.173, "unit": "nM"}, {"measurement": "EC50", "setting": "human B7-H3 [4]", "result": 0.186, "unit": "nM"}]}, {"binder": "B5", "values": [{"measurement": "EC50", "setting": "human ROR1 [5]", "result": 0.228, "unit": "nM"}, {"measurement": "EC50", "setting": "human ROR1 [6]", "result": 0.42, "unit": "nM"}, {"measurement": "EC50", "setting": "human ROR1 [7]", "result": 0.365, "unit": "nM"}, {"measurement": "EC50", "setting": "human ROR1 [8]", "result": 0.24, "unit": "nM"}, {"measurement": "EC50", "setting": "human ROR1 [9]", "result": 0.36, "unit": "nM"}, {"measurement": "EC50", "setting": "human ROR1 [10]", "result": 0.457, "unit": "nM"}, {"measurement": "EC50", "setting": "human ROR1 [11]", "result": 0.427, "unit": "nM"}, {"measurement": "EC50", "setting": "human ROR1 [12]", "result": 0.419, "unit": "nM"}, {"measurement": "EC50", "setting": "human ROR1 [13]", "result": 0.386, "unit": "nM"}]}, {"binder": "B6", "values": [{"measurement": "EC50", "setting": "human ROR1 [1]", "result": 0.217, "unit": "nM"}, {"measurement": "EC50", "setting": "human ROR1 [2]", "result": 0.261, "unit": "nM"}]}, {"binder": "B7", "values": [{"measurement": "EC50", "setting": "human ROR1 [14]", "result": 0.152, "unit": "nM"}, {"measurement": "EC50", "setting": "human ROR1 [15]", "result": 0.134, "unit": "nM"}]}, {"binder": "B8", "values": [{"measurement": "EC50", "setting": "human ROR1 [5]", "result": 0.211, "unit": "nM"}, {"measurement": "EC50", "setting": "human ROR1 [6]", "result": 0.236, "unit": "nM"}, {"measurement": "EC50", "setting": "human ROR1 [8]", "result": 0.208, "unit": "nM"}, {"measurement": "EC50", "setting": "human ROR1 [16]", "result": 0.22, "unit": "nM"}, {"measurement": "EC50", "setting": "human ROR1 [10]", "result": 0.233, "unit": "nM"}, {"measurement": "EC50", "setting": "human ROR1 [11]", "result": 0.257, "unit": "nM"}, {"measurement": "EC50", "setting": "human ROR1 [17]", "result": 0.238, "unit": "nM"}, {"measurement": "Kd", "setting": "human ROR1 [18]", "result": 6.65, "unit": "nM"}, {"measurement": "EC50", "setting": "human ROR1 [12]", "result": 0.273, "unit": "nM"}, {"measurement": "EC50", "setting": "human ROR1 [13]", "result": 0.268, "unit": "nM"}]}, {"binder": "B9", "values": [{"measurement": "EC50", "setting": "human B7-H3 [3]", "result": 0.232, "unit": "nM"}, {"measurement": "EC50", "setting": "human B7-H3 [4]", "result": 0.19, "unit": "nM"}]}, {"binder": "B10", "values": [{"measurement": "EC50", "setting": "human ROR1 [14]", "result": 0.141, "unit": "nM"}, {"measurement": "EC50", "setting": "human ROR1 [15]", "result": 0.18, "unit": "nM"}]}, {"binder": "B11", "values": [{"measurement": "Kd", "setting": "human ROR1 [18]", "result": 6.05, "unit": "nM"}]}]}
